Experimental data reported in article PMC9445180 (2022).

Tests used:
HTRA3^PD/PDZ-LoopA^HTRA1 = molecular target: T1, HTRA3^PD/PDZ-LoopA^HTRA1 (human, UniProt P83110 130-160; P83110 171-453); assay: SPR
T1 chain: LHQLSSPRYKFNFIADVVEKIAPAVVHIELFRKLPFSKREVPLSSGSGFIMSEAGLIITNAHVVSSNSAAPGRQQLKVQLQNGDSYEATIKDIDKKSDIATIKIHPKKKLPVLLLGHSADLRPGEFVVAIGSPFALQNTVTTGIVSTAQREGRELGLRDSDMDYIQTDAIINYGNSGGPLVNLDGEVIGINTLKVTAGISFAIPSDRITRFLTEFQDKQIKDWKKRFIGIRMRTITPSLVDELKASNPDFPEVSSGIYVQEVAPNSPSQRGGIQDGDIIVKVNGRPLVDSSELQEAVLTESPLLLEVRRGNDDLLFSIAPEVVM

HTRA2^PD/PDZ-LoopA^HTRA1 = molecular target: T2, HTRA2^PD/PDZ-LoopA^HTRA1 (human, UniProt O43464 134-167; O43464 178-458); assay: SPR
T2 chain: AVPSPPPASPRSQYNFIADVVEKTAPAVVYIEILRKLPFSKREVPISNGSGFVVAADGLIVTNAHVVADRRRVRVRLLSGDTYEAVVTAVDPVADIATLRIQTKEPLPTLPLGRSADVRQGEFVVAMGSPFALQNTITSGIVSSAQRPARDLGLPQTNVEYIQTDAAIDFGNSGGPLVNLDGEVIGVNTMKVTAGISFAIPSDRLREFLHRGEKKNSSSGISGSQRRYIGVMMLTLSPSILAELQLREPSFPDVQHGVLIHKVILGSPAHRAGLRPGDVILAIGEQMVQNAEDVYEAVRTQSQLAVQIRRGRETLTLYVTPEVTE

Kd (HTRA3^PD/PDZ-LoopA^HTRA1): 0.0356 nM
Kd (HTRA2^PD/PDZ-LoopA^HTRA1): 0.0526 nM
B1: Fab15H6.v4 (Fab, V domains shown)
VH: EVQLVQSGAEVKKPGASVKVSCKASGYKFTDSEMHWVRQAPGQGLEWIGGVDPETEGAAYNQKFKGRATITRDTSTSTAYLELSSLRSEDTAVYYCTRGYDYDYALDYWGQGTLVTVSS
VL: DIQMTQSPSSLSASVGDRVTITCRASSSVEFIHWYQQKPGKAPKPLISATSNLASGVPSRFSGSGSGTDFTLTISSLQPEDFATYYCQQWSSAPWTFGQGTKVEIK
